Experimental data as given in article PMC12846707, “Structural and Functional Analysis of Porcine CR1-like Proteins in C4b-Mediated Immune Responses” (Veterinary Sciences, 2025).

B1: Recombinant CR1-like CCPs 1-3 (domain or fragment)
chain: not shown
B2: Recombinant C4b α chain (domain or fragment)
chain: AMELLQEEELIEEDDIPVRSFFPENWLWRVEEVPHSLQLSLLLPDSLTTWEIHGVSLSKSTGLCVATPARVRVFREFHLHLRLPVSIHRFEQLELRPVLYNYLDKDVPVSVHVSPVEGLCLAGGGGLAQQVLVPAGSARPVGFSVVPISAAAVSLKVVARGSFDFPVGDAVSKILQIANEGAIHQEELVYALNPQNVLGRNLEIPGHSDPNVIPDGDFRSFVRLTASDPLDTLGSEGALSPGGLASLLRLPRGCAEQTMFYLAPTLAASRYLDKTEQWSTLPPETKDHAVDLIQKGYTRIQEFRKNDGSYGAWLHRESSTWLTAFVLKVLSLAQEQVGGSPEKLQETAAWLLLQQKEDGSFHDPCPVIHRDMQGGLVGNDEKVALTAFVVIALHHGLAVFQDRNAEQFKRVENAISTANDFLGEKVSSGLLGSHAAAISAYALSLSGAPEQLQDIAHNNLMAMAQKIGDHLFWGTVPSSQSNTLSPTPAPQRPTDPMPQAPALWIETTAYALLHLLIREGKAEMADQTASWLTRQGSYKGGFRSTQDTVIALDALSAYWILSHTTEEKELNVTLSSMSRGGFKSHVVRLTNHQVKGLEEELQFSLGSKINVKVGGNSKGTLKILRAYNVIDLKNTTCQDLQIEVTVKGHVEYMLEANEDYEEYEYEDLPAQDDPGAHSQPVTPLQLFDG

How the values were obtained:
Assay in all cases: SPR; Biacore 8K, single-cycle; C4bα and C4bβ covalently immobilised on CM5 chip (about 1500 RU); CR1-like fragments or mutant as mobile phase, 1.56 × 10^-2 to 4 μM; 25 °C; 10 mM HEPES pH 7.4, 150 mM NaCl, 0.05% Tween-20; apparent KD = kd/ka
Conditions in all cases: both partners purified
Recombinant C4b α chain = molecular target: B2
Recombinant C4b β chain = molecular target: T1, Recombinant C4b β chain (pig)
T1 construct: beta chain of porcine complement C4b, expressed as a separate chain; source: Escherichia coli (pET28a), purified (Ni-NTA, SP-HP cation exchange); not shown: 6His, N-terminal, kept; Flag-ppase, N-terminal, kept

[1] = molecular target: T2, Recombinant CR1-like CCPs 12-14 (pig)
T2 construct: porcine CR1-like, CCP domains 12-14; Section 2.12 describes 6His-sumo (N-terminal) and flag (C-terminal) tags and insect cells for 'CR1-like fragments' in general

## B1
Recombinant C4b α chain
  Kd: 226 nM
Recombinant C4b β chain
  Kd: 173 nM

## B2
[1]
  Kd: 317 nM
